The values that follow come from patent US11649275B2, “Dual agonist fusion proteins” (Duke University, priority 2018, dated 2023).

In data set [1] the test system is db/db mice. The data set is described as follows: Chronic dosing study, weekly s.c. for four weeks (GTT, % HbA1c, body weight, food intake). It is filed as in vivo. As for the experimental part:
(§1) Animals: In vivo studies were conducted in accordance with the AAALAC-accredited Duke Institutional Animal Care and Use Committee. 5-week-old B6.BKS(D)-Lepr^db/J (“db/db”) male mice were purchased from Jackson Laboratory (Bar Harbor, Me.) and maintained on a 12 h/12 h light/dark cycle with ad libitum access to food (LabDiet 5053) and water. Animals were group-housed and allowed 1-week acclimation before stratification into control and treatment groups based on baseline ambient blood glucose levels and body weights.
(§2) ELP fusion treatments: ELP fusion proteins were administered at 150-200 μM concentration via injection into the subcutaneous (s.c.) space on the hind flank. Animals received either a single s.c. injection for short-term studies or weekly s.c. injections for chronic studies. The “1:1 mixture” treatment group received a single injection containing an equimolar mixture of GLP1-ELP and ELP-FGF21, with the indicated dose referring to the dose of each respective fusion in the mixture. Vehicle control refers to PBS.
Food Intake: For food intake studies, animals were group-housed 4 per cage, and food pellets were weighed every 1-2 days. Total cage food intake was calculated for each time increment, averaged per animal, and summed over the course of the study to yield a cumulative food intake per mouse. N=8 treatment groups were divided into 2 cages, allowing for an n=2 food intake standard error calculation.

For data set [2], the system named is db/db mice. The data set is described as follows: Short-term co-treatment pilot study, 48 h after single s.c. injection. The format is in vivo. Conditions: 48 h post-injection, 1000 nmol/kg s.c. As for the experimental part:
as §1, §2
Ambient blood glucose measurements: Blood glucose levels were measured from a tail vein puncture with an AlphaTRAK 2 Blood Glucose Meter (Zoetis, Parsippany-Troy Hills, N.J.) every 24 h, 1-2 h following onset of the light cycle. […] Areas under the curve (AUCs) were calculated with GraphPad Prism 8 software using the trapezoidal rule and setting a Y=0 baseline. […]

Data set [3] can be described thus: Pharmacokinetic study of radiolabeled ELP fusion depots after s.c. injection. Conditions: component of 1:1 mixed depot, 1000 nmol/kg each. The format is in vivo, mice. How it is done: Pharmacokinetic studies: Tyrosine residues on GLP1-ELP, ELP-FGF21, or GLP1-ELP-FGF21 fusion proteins were reacted with Na^125I radionuclide (Perkin Elmer) using Pierce Pre-Coated Iodination Tubes (Thermo Fisher Scientific) and the indirect method for iodination. Radiolabeled protein was purified from unreacted radionuclide with Zeba Spin Desalting Columns (Thermo Fisher Scientific). Activities of radiolabeled constructs were measured with an Atomlab 400 Dose Calibrator (Biodex, Shirley, N.Y.) and correlated to protein concentration. Mice received a single s.c. injection of radiolabeled fusion, and 10 μL blood samples were collected at frequent time points from the tail vein and stored at room temperature until radioactivity quantification. Sample counts were measured at the end of the study on a Wallac Wizard 1480 Automatic Gamma Counter (Perkin Elmer). An activity vs. count standard curve was used to convert sample counts to activities, and subsequently to moles of drug.
Pharmacokinetic analysis: The maximum serum concentration (Cmax) was recorded as observed, as well as time to reach Cmax (tmax). […] Absorption half-life (t1/2, abs) was estimated from the slope of the linear regression curve. When a drug administered at an extravascular site yields a terminal half-life greater than that resulting from an i.v. bolus, the terminal half-life reflects the absorption half-life.

The target of data set [4] is T1, murine β-Klotho and FGF receptor 1 (Mus musculus, UniProt P16092+Q99N32).
T1 construct: expressed in transfected cells; host or cells: HEK293
T1 sequence (Q99N32 whole entry): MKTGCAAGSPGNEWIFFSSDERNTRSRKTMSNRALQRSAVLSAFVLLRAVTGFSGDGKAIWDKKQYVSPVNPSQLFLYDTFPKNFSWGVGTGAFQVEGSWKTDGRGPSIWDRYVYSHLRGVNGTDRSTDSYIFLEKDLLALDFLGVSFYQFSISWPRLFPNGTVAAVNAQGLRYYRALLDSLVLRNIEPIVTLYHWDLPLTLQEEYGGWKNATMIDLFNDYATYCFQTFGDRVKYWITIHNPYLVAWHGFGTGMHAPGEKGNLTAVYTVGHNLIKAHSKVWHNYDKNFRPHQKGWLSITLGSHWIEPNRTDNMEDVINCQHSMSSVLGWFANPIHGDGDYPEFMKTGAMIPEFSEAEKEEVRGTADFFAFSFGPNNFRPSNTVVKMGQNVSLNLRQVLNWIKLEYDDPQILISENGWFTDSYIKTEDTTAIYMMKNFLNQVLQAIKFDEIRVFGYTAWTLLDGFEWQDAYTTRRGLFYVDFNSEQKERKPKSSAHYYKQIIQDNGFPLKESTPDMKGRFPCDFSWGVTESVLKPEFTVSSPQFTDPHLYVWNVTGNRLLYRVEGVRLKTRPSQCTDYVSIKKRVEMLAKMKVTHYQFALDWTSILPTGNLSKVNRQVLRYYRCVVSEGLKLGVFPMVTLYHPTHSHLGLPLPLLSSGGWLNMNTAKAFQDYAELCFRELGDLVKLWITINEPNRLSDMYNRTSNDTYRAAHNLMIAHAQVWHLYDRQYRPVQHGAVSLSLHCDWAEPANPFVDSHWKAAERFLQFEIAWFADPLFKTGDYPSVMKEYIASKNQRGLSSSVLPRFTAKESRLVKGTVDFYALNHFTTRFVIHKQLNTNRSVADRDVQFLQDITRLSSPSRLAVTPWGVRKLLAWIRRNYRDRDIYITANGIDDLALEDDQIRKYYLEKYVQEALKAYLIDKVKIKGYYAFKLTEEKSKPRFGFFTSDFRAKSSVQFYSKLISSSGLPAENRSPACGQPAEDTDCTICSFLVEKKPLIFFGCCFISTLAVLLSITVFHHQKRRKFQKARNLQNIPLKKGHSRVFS
T1 sequence (P16092 22-822): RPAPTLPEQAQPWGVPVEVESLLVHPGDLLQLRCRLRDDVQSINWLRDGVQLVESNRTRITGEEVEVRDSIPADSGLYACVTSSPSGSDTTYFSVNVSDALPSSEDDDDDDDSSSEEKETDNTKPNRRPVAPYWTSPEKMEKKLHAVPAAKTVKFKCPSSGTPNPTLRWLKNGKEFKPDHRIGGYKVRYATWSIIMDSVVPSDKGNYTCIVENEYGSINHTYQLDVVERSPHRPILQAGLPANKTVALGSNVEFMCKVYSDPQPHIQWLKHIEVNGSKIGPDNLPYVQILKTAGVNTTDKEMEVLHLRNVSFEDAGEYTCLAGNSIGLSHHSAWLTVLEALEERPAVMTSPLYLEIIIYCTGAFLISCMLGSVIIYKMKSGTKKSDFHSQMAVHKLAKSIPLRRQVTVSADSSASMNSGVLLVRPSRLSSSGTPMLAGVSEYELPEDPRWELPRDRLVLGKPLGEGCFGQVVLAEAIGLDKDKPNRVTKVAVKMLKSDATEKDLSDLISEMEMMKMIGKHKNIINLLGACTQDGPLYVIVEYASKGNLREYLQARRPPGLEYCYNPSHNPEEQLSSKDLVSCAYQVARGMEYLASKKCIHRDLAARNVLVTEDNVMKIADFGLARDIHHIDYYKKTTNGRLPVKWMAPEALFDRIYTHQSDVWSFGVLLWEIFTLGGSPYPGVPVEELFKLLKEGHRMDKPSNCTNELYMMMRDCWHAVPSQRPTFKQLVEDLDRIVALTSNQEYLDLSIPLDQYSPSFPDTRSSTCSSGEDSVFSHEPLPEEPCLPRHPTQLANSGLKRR
The data set is described as follows: ERK phosphorylation assay (FGF21 receptor agonism, HEK293 cells). Conditions: compared to native FGF21. The format is cell-based. As for the experimental part: ERK phosphorylation assay: For quantitative evaluation of FGF21 in vitro activity, a HEK293 cell line was previously generated that stably expresses murine β-Klotho and FGF receptor 1 and thereby enables FGF21-mediated ERK1/2 phosphorylation. Cells were seeded at 5×10^4 cells/cm^2 and adhered overnight. After serum starvation for 6 h, cells were treated with serial dilutions of FGF21-containing fusion proteins or native mouse FGF21 (ProSpec-Tany, East Brunswick, N.J.) for 5 min. Cells were lysed and assessed for phospho-ERK1/2 and total ERK1/2 content using the AlphaLISA Surefire Ultra Assay Kits (PerkinElmer) and the EnSpire Alpha Plate Reader (PerkinElmer). Phospho-ERK1/2 was normalized to total ERK1/2 and fit to a three-parameter dose-response curve to determine EC50s using GraphPad Prism 8 software (La Jolla, Calif.).

B1: ELP-FGF21: Single agonist control: ELP (120 repeats, 4:1 Val:Ala) fused to mutated murine FGF21; SEQ ID NO:14 (protein)
chain: GVGVPGVGVPGAGVPGVGVPGVGVPGVGVPGVGVPGAGVPGVGVPGVGVPGVGVPGVGVPGAGVPGVGVPGVGVPGVGVPGVGVPGAGVPGVGVPGVGVPGVGVPGVGVPGAGVPGVGVPGVGVPGVGVPGVGVPGAGVPGVGVPGVGVPGVGVPGVGVPGAGVPGVGVPGVGVPGVGVPGVGVPGAGVPGVGVPGVGVPGVGVPGVGVPGAGVPGVGVPGVGVPGVGVPGVGVPGAGVPGVGVPGVGVPGVGVPGVGVPGAGVPGVGVPGVGVPGVGVPGVGVPGAGVPGVGVPGVGVPGVGVPGVGVPGAGVPGVGVPGVGVPGVGVPGVGVPGAGVPGVGVPGVGVPGVGVPGVGVPGAGVPGVGVPGVGVPGVGVPGVGVPGAGVPGVGVPGVGVPGVGVPGVGVPGAGVPGVGVPGVGVPGVGVPGVGVPGAGVPGVGVPGVGVPGVGVPGVGVPGAGVPGVGVPGVGVPGVGVPGVGVPGAGVPGVGVPGVGVPGVGVPGVGVPGAGVPGVGVPGVGVPGVGVPGVGVPGAGVPGVGVPGVGVPGVGVPGVGVPGAGVPGVGVPGVGVPGVGVPGVGVPGAGVPGVGVPGVGVPGAYPIPDSSPLLQFGGQVRQRYLYTDDDQDTEAHLEIREDGTVVGAAHRSPESLLELKALKPGVIQILGVKASRFLCQQPDGALYGSPHFDPEACSFRERLLEDGYNVYQSEAHGLPLRLPQKDSPNQDATSWGPVRFLPMPGLLHEPQDQAGFLPPEPPDVGSSDPLSMVEGSQGRSPSYASG
Consider B1, for which the “fasting blood glucose levels” value in the data set with db/db mice [1] (5 h fast, 3 days after the first dosing cycle, 1000 nmol/kg s.c.) turned out to be 237 ± 21 mg/dL. The “% HbA1c elevation relative to control” value in the data set on db/db mice [1] (four-week study) is listed as “significantly reduced % HbA1c elevation relative to control”. Besides, the “effect on body weight / weight gain compared to vehicle” value with db/db mice [1] (four-week treatment period) was “did not induce a significant effect on body weight”. In addition, in the data set on db/db mice [1] (i.p. glucose tolerance test 3 days after the first dosing cycle), the “GTT AUC” value is recorded as “significantly decreased GTT AUC compared to vehicle”. For the same molecule, in the data set on db/db mice [1] (prior to glucose challenge, 3 days after the first dosing cycle), the fasting plasma insulin entry is given as “equivalent levels of fasting plasma insulin”. In addition, the “body weight, % change from pre-injection weight” value with db/db mice [2] is given as −0.9±0.3%. In addition, the “day by which plasma levels dropped below 100 nM” value in data set [3] was not above 4 days. Moreover, in data set [4], the “increase in FGF21 receptor EC50 on fusion of FGF21 to an ELP” value is “approximately twenty-fold”.
